Results reported in paper PMC11605949.

Biological target: HER2 (human, UniProt P04626 23-652)
Test: SPR

B1: HER2 aptamer (ssDNA)
DNA: AACCGCCCAAATCCCTAAGAGTCTGCACTTGTCATTTTGTATATGTATTTGGTTTTTGGCTCTCACAGACACACTACACACGCACA
modifications: 5'-SH-(CH2)6
binding result: binds
